The results in this text go back to US20040038876A1.

For this assay, the target named is Ptc-1. The assay can be described thus: Ptc-1 binding assay, format not described.
Take “Shh C1II/A169C, 5 K PEG (from UniProt Q15465 25-197) (ligand)”: the Ptc binding was determined as 1 nM.
Next, “Shh C1II/A169C, NEM-modified (from UniProt Q15465 25-197) (ligand)”: 0.4 nM; “Shh C1II/A169C, unmodified (from UniProt Q15465 25-197) (ligand)”: 1.1 nM.
Regarding “mutant 17 (Shh C1II/A169C + N27C), 5 K PEG (from UniProt Q15465 25-197) (ligand)”, the Ptc binding stood at 32 nM.
Next, “mutant 17 (Shh C1II/A169C + N27C), NEM-modified (from UniProt Q15465 25-197) (ligand)”: 0.3 nM; “mutant 17 (Shh C1II/A169C + N27C), unmodified (from UniProt Q15465 25-197) (ligand)”: 1.3 nM.
With “mutant 18 (Shh C1II/A169C + N46C), 5 K PEG (from UniProt Q15465 25-197) (ligand)”, the Ptc binding came to 2 nM.
Next, “mutant 18 (Shh C1II/A169C + N46C), NEM-modified (from UniProt Q15465 25-197) (ligand)”: 2 nM; “mutant 19 (Shh C1II/A169C + Y57C), 5 K PEG (from UniProt Q15465 25-197) (ligand)”: 3 nM.
Next, “mutant 19 (Shh C1II/A169C + Y57C), NEM-modified (from UniProt Q15465 25-197) (ligand)”: 1 nM; “mutant 20 (Shh C1II/A169C + N68C), 5 K PEG (from UniProt Q15465 25-197) (ligand)”: 3 nM.
Then “mutant 20 (Shh C1II/A169C + N68C), NEM-modified (from UniProt Q15465 25-197) (ligand)”, with 2 nM.
As to “mutant 20 (Shh C1II/A169C + N68C), unmodified (from UniProt Q15465 25-197) (ligand)”, the Ptc binding came to 3 nM.
Next, “mutant 21 (Shh C1II/A169C + N92C), 5 K PEG (from UniProt Q15465 25-197) (ligand)”: 35 nM.
Next, “mutant 21 (Shh C1II/A169C + N92C), NEM-modified (from UniProt Q15465 25-197) (ligand)”: 0.3 nM.
Then “mutant 22 (Shh C1II/A169C + S154C), 5 K PEG (from UniProt Q15465 25-197) (ligand)”, with 85 nM.
Turning to “mutant 22 (Shh C1II/A169C + S154C), NEM-modified (from UniProt Q15465 25-197) (ligand)”, the Ptc binding was determined as 8.3 nM.
Then “mutant 22 (Shh C1II/A169C + S154C), unmodified (from UniProt Q15465 25-197) (ligand)”, with 3.9 nM; and “mutant 24 (Shh C1II/A169C + S112C), 5 K PEG (from UniProt Q15465 25-197) (ligand)”, with 8 nM.
“mutant 24 (Shh C1II/A169C + S112C), NEM-modified (from UniProt Q15465 25-197) (ligand)” displayed a Ptc binding of 0.6 nM.
“mutant 25 (Shh C1II/A169C + S133C), 5 K PEG (from UniProt Q15465 25-197) (ligand)” displayed a Ptc binding of 33 nM.
Next, “mutant 25 (Shh C1II/A169C + S133C), NEM-modified (from UniProt Q15465 25-197) (ligand)”: 0.4 nM; “mutant 25 (Shh C1II/A169C + S133C), unmodified (from UniProt Q15465 25-197) (ligand)”: 3.7 nM.
For the substance “mutant 44 (Shh C1II/A169C + E113C), 5 K PEG (from UniProt Q15465 25-197) (ligand)”, the Ptc binding was 12 nM.
Then “mutant 44 (Shh C1II/A169C + E113C), NEM-modified (from UniProt Q15465 25-197) (ligand)”, with 0.5 nM; and “mutant 44 (Shh C1II/A169C + E113C), unmodified (from UniProt Q15465 25-197) (ligand)”, with 2.3 nM.
Next, “wild type Shh, 5 K PEG (from UniProt Q15465 24-197) (ligand)”: 42 nM; “wild type Shh, NEM-modified (from UniProt Q15465 24-197) (ligand)”: 1.4 nM; “wild type Shh, unmodified (from UniProt Q15465 24-197) (ligand)”: 2.4 nM.
